Data taken from the supplement of paper PMC7877785.
± gives the uncertainty stated by the source.

Assay: self-splicing fitness, log relative to wild type (ln ratio); higher = more splicing; Tetrahymena group I intron in knt gene, E. coli kanamycin selection, DiMSum; sequences stand for … in CUCUCU…GGAGGGAAAAGUUAUCAGGCAUGCACCUGGUAGCUAGUCUUUAAACCAAUAGAUUGCAUCGGUUUAAAAGGCAAGACCGUCAAAUUGCGGGAAAGGGGUCAACAGCCGUUCAGUACCAAGUCUCAGGGGAAACUUUGAGAUGGCCUUGCAAAGGGUAUGGUAAUAAGCUGACGGACAUGGUCCUAACCACGCAGCCAAGUCCUAAGUCAACAGAUCUUCUGUUGAUAUGGAUGCAGUUCACAGACUAAAUGUCGGUCGGGGAAGAUGUAUUCUUCUCAUAAGAUAUAGUCGGACCUCUCCUUAAUGGGAGCUAGCGGAUGAAGUGAUGCAACACUGGAGCCGCUGGGAACUAAUUUGUAUGCGAAAGUAUAUUGAUUAGUUUUGGAGUACUCGUGGUCG
How it was run: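 A randomised library covering all eight P1ex-region intron nucleotides was built with the intron in the knt kanamycin-resistance gene on pET-22b(+) and held in E. coli BL21(DE3). Cells were grown overnight at 37°C or 30°C on LB agar, with or without 25 μg/mL kanamycin, plus 100 μg/mL carbenicillin, 50 μM IPTG and 0.2% rhamnose, and pooled colonies were amplicon-sequenced on an Illumina HiSeq 2500. DiMSum fitness is the error-weighted combination of wild-type-normalised replicate fold changes, kanamycin versus none.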

Sequence	self-splicing fitness (ln) (30 °C)	self-splicing fitness (ln) (37 °C)
UCCAAGCAAUAUUACGUGAA	-0.666 ± 0.074	0.295 ± 0.1
GCUCAGCAAUAUUACGCGCG	-1.03 ± 0.071	-0.194 ± 0.091
CUCAAGCAAUAUUACGAACU	-3.03 ± 0.2	-1.27 ± 0.17
GUCGAGCAAUAUUACGAGUG	-1.62 ± 0.088	-1.85 ± 0.11
CAGGAGCAAUAUUACGCCGC	-2.74 ± 0.25	-1.58 ± 0.46
ACUGAGCAAUAUUACGGACA	-2.8 ± 0.22	-2.27 ± 0.17
UCUAAGCAAUAUUACGUCCU	-2.72 ± 0.28	-0.964 ± 0.21
ACUAAGCAAUAUUACGAAUG	-2.31 ± 0.13	-1.2 ± 0.14
CUUAAGCAAUAUUACGAUGG	-1.17 ± 0.082	-0.43 ± 0.11
AGGCAGCAAUAUUACGGGGU	-3.54 ± 0.21	-3.25 ± 0.37
GCGAAGCAAUAUUACGGGAA	-3.48 ± 0.43	-2.68 ± 0.33
UCAAAGCAAUAUUACGCUAA	-3.48 ± 0.25	-2.87 ± 0.27
AGUAAGCAAUAUUACGAGAU	-3.09 ± 0.15	-0.575 ± 0.16
AAUUAGCAAUAUUACGGUAU	-1.29 ± 0.097	-0.598 ± 0.11
GUCCAGCAAUAUUACGUGAU	-0.729 ± 0.047	-0.345 ± 0.071
UUUAAGCAAUAUUACGAACG	-1.08 ± 0.18	0.0714 ± 0.21
GAAAAGCAAUAUUACGGGGC	-2.89 ± 0.16	-3.46 ± 0.37
CACAAGCAAUAUUACGCUUA	-2.27 ± 0.13	-2.15 ± 0.13
UUUGAGCAAUAUUACGAGCA	–	-1.53 ± 0.43
UACGAGCAAUAUUACGUUUA	-2.32 ± 0.12	-1.79 ± 0.12
UGGUAGCAAUAUUACGCCUU	-0.729 ± 0.15	0.426 ± 0.18
CAAGAGCAAUAUUACGGCAA	-3.01 ± 0.29	-3.03 ± 0.38
UCACAGCAAUAUUACGAGCG	-0.409 ± 0.064	-0.305 ± 0.093
GUAUAGCAAUAUUACGCCUU	-2.11 ± 0.29	-0.499 ± 0.24
UCGGAGCAAUAUUACGACAC	-3.18 ± 0.48	-1.19 ± 0.3

Sequence	self-splicing fitness (ln) (30 °C)	self-splicing fitness (ln) (37 °C)
ACUUAGCAAUAUUACGGGAC	-3.61 ± 0.19	-2.03 ± 0.17
UCUCAGCAAUAUUACGAAAA	-1.84 ± 0.26	-2.59 ± 0.26
UCGUAGCAAUAUUACGCAAC	–	-2.42 ± 0.48
UUGCAGCAAUAUUACGUCGG	-0.191 ± 0.089	-0.117 ± 0.11
CCUUAGCAAUAUUACGACGU	-2.25 ± 0.18	-1.9 ± 0.23
ACCGAGCAAUAUUACGGGAA	-2.52 ± 0.21	-2.56 ± 0.22
CGUAAGCAAUAUUACGCGGU	-1.99 ± 0.23	-1.69 ± 0.38
CCUAAGCAAUAUUACGCCCA	-3.67 ± 0.33	-2.02 ± 0.33
AUUGAGCAAUAUUACGUGGU	-3.28 ± 0.21	-3.12 ± 0.43
ACCUAGCAAUAUUACGGCUG	-4.76 ± 0.36	-2.32 ± 0.18
GAAAAGCAAUAUUACGGAGG	-2.71 ± 0.14	-1.73 ± 0.18
ACGUAGCAAUAUUACGGUGC	-3.86 ± 0.4	-2.01 ± 0.22
UAUCAGCAAUAUUACGGCUG	-3.56 ± 0.2	-1.78 ± 0.15
GCUAAGCAAUAUUACGUACU	-0.353 ± 0.051	-0.348 ± 0.068
UCCCAGCAAUAUUACGGCGU	-0.605 ± 0.057	0.275 ± 0.071
UUAGAGCAAUAUUACGGUCC	-2.67 ± 0.42	–
UUUUAGCAAUAUUACGGCUC	-2.49 ± 0.23	-0.329 ± 0.21
GUAUAGCAAUAUUACGUACU	-3.8 ± 0.39	-2.05 ± 0.2
GUUCAGCAAUAUUACGGCCU	-1.02 ± 0.2	-0.57 ± 0.24
CACAAGCAAUAUUACGCUAG	-2.72 ± 0.13	-1.43 ± 0.1
GGCCAGCAAUAUUACGGAUG	-0.5 ± 0.08	-0.503 ± 0.077
UCUAAGCAAUAUUACGGUAU	-4.13 ± 0.27	-1.56 ± 0.21
UAAGAGCAAUAUUACGACCU	-1.34 ± 0.23	–
AAAUAGCAAUAUUACGGUUG	-1.88 ± 0.094	-1.33 ± 0.12
CGGCAGCAAUAUUACGACUU	-0.541 ± 0.06	-0.196 ± 0.08

Sequence	self-splicing fitness (ln) (30 °C)	self-splicing fitness (ln) (37 °C)
GCUAAGCAAUAUUACGAGCA	-1.72 ± 0.14	-1.03 ± 0.13
GAUAAGCAAUAUUACGGUCU	-2.33 ± 0.12	-1.46 ± 0.14
AGAAAGCAAUAUUACGCGAU	-3.37 ± 0.17	-1.63 ± 0.13
UGAGAGCAAUAUUACGGUUC	-3.4 ± 0.32	-1.5 ± 0.23
AUUCAGCAAUAUUACGGUUA	-0.544 ± 0.089	-0.305 ± 0.08
UUUGAGCAAUAUUACGAAAA	-2.31 ± 0.28	-1.21 ± 0.24
GCAGAGCAAUAUUACGGGUG	-2.91 ± 0.22	-1.82 ± 0.16
CGGAAGCAAUAUUACGUAGA	-3.45 ± 0.2	-1.82 ± 0.19
GAGCAGCAAUAUUACGUGAU	-2.21 ± 0.082	-0.968 ± 0.084
CUGGAGCAAUAUUACGCUCA	-3.4 ± 0.36	-0.5 ± 0.3
ACUAAGCAAUAUUACGCGAC	-2.71 ± 0.19	-2.78 ± 0.21
CCAUAGCAAUAUUACGAUUA	-3.12 ± 0.32	-2.54 ± 0.28
GUCUAGCAAUAUUACGCCUG	–	-3.47 ± 0.41
UGAAAGCAAUAUUACGUAUA	-1.56 ± 0.13	-1.28 ± 0.12
AUUUAGCAAUAUUACGAUUC	-1.73 ± 0.22	-0.798 ± 0.26
GCUUAGCAAUAUUACGUGGU	-2.81 ± 0.15	-1.93 ± 0.16
AAAUAGCAAUAUUACGGGCU	-2.04 ± 0.15	-0.367 ± 0.13
AAAUAGCAAUAUUACGUGCA	-1.23 ± 0.063	-0.426 ± 0.095
AAGUAGCAAUAUUACGGUGU	-2.2 ± 0.09	-1.23 ± 0.099
UCGCAGCAAUAUUACGCCAU	–	-1.96 ± 0.4
UCCAAGCAAUAUUACGAGGA	-2.7 ± 0.2	-2.3 ± 0.23
GCAGAGCAAUAUUACGGAGC	-2.89 ± 0.28	-2.84 ± 0.28
GAUGAGCAAUAUUACGGGGU	-3.36 ± 0.23	-2.92 ± 0.32
UGUCAGCAAUAUUACGGGAA	-1.71 ± 0.12	-0.986 ± 0.11
GCCAAGCAAUAUUACGGCGC	-1.36 ± 0.11	-0.697 ± 0.15

Sequence	self-splicing fitness (ln) (30 °C)	self-splicing fitness (ln) (37 °C)
GUACAGCAAUAUUACGAGGC	-3.95 ± 0.46	-1.41 ± 0.18
CUGUAGCAAUAUUACGCAGG	-3.56 ± 0.27	-2.73 ± 0.2
GAUCAGCAAUAUUACGGGGC	-3.2 ± 0.25	-2.38 ± 0.22
UCCAAGCAAUAUUACGGGAA	-1.07 ± 0.078	-0.547 ± 0.079
ACGUAGCAAUAUUACGUUGU	-3.07 ± 0.11	-2.01 ± 0.14
ACUCAGCAAUAUUACGAUAC	-0.894 ± 0.13	-0.656 ± 0.19
GACUAGCAAUAUUACGUAAG	-0.946 ± 0.087	-0.709 ± 0.11
ACUAAGCAAUAUUACGGCUG	-0.108 ± 0.076	0.16 ± 0.097
UAAAAGCAAUAUUACGUUAG	-1.37 ± 0.069	-1.33 ± 0.088
AACGAGCAAUAUUACGUCUA	-2.06 ± 0.17	-0.756 ± 0.12
AGAUAGCAAUAUUACGCCAA	-2.98 ± 0.38	-3.38 ± 0.37
CGUUAGCAAUAUUACGAUGA	-1.79 ± 0.13	-0.842 ± 0.13
GGUGAGCAAUAUUACGGUGC	-2.09 ± 0.14	-0.734 ± 0.2
GUUUAGCAAUAUUACGAACU	–	-2.69 ± 0.44
GCCUAGCAAUAUUACGUUAU	-1.52 ± 0.12	-0.39 ± 0.14
GACCAGCAAUAUUACGUAGG	-2.31 ± 0.075	-1.62 ± 0.09
UAAUAGCAAUAUUACGGGCG	-1.45 ± 0.1	-0.567 ± 0.13
GCAGAGCAAUAUUACGUUCA	-2.06 ± 0.13	-0.713 ± 0.1
AUGUAGCAAUAUUACGUGCC	-1.65 ± 0.22	-0.677 ± 0.2
AAUGAGCAAUAUUACGGUCC	-2.47 ± 0.45	–
GCCGAGCAAUAUUACGAAAC	-2.15 ± 0.22	-1.13 ± 0.17
UUUAAGCAAUAUUACGGUAG	-0.741 ± 0.17	-0.971 ± 0.21
